Data on two substances can be found in paper PMC2213112.

For test [1], the target named is P-selectin expressed on Chinese hamster ovary cells (CHO-P) (UniProt P16109). Description: flow cytometry on cells.
Test [2] has the same target. In words: flow cytometry on cells. This is another data set of the same source.
Test [3] shares this target. Description: flow cytometry on cells. The source holds these as a separate data set.
Test [4] has as its target Recombinant human P-selectin (recombinant ectodomain of P-selectin) (human) (UniProt P16109). Description: SPR.

Where two headings read alike, the source gives them in different places.

On to “FITC-conjugated purified C3b (from UniProt P01024 749-1663; P01024 749-1663) (natural protein)”, for which the figures for the increase of binding over the sample without calcium or magnesium in test [1], in test [2] and in test [3] were 55%, 63% and 33%, respectively. Also, the mean fluorescence intensity (MFI) of C3b-FITC in test [3] worked out at 476.

Take “purified C3b (from UniProt P01024 749-1663; P01024 749-1663) (natural protein)”: the Kd in test [4] was 1000 nM.
